We go through one molecule from patent US20150211000A1 (GLYCOFI, published 2015).

The experiment has as its target T1, PCSK9 (Proprotein convertase subtilisin/kexin type 9) antigen, Alexa 647-conjugated (Pan troglodytes (Chimpanzee); Homo …, UniProt A8T644 31-152; Q8NBP7 153-692, Alexa 647-conjugated).
T1 construct: also called fluorophore-conjugated PCSK9 antigen; fluorophore-labeled PCSK-9 antigen
In words: flow cytometry / FACS of Fab-displaying Pichia pastoris labeled with Alexa 647-conjugated PCSK9.

T1 sequence (A8T644 31-152 limits assumed, chain 1 of 2): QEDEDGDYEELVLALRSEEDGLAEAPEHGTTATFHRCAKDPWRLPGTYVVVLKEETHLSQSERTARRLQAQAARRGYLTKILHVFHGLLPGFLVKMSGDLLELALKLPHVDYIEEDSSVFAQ
T1 sequence (A8T644 other isoform, or with tags, fused parts or gaps limits assumed, chain 2 of 2): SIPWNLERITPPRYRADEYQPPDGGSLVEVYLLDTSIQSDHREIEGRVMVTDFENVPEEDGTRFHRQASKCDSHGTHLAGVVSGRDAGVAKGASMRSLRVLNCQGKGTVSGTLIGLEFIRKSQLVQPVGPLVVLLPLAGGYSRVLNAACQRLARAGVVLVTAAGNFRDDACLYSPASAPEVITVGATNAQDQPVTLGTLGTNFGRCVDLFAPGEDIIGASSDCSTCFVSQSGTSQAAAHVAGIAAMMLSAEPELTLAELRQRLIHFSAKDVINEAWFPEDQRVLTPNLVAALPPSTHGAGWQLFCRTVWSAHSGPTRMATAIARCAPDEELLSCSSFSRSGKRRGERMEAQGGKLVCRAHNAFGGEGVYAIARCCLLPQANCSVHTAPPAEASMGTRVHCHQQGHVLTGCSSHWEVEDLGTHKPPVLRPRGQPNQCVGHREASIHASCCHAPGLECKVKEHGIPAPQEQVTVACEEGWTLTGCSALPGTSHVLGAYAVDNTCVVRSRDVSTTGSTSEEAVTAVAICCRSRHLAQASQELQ

B1: anti-CD20 (Genmab) Fab fragment, heavy chain fused to GR1 coiled coil peptide, displayed on Pichia pastoris strain YGLY7761 (Fab, V domains shown)
VH: AVQLVESGGGLVQPGRSLRLSCAASGFTFGDYTMHWVRQAPGKGLEWVSGISWNSGSIGYADSVKGRFTISRDNAKNSLYLQMNSLRAEDTALYYCTKDNQYGSGSTYGLGVWGQGTLVTVSS
VL: EIVLTQSPATLSLSPGERATLSCRASQSVSSYLAWYQQKPGQAPRLLIYDASNRATGIPARFSGSGSGTDFTLTISSLEPEDFAVYYCQQRSNWPLTFGGGTKVEIKR
notes: also called α-CD20; anti-CD20 Fab fragment Genmab; not shown: linker and tags of vector pGLY3958 between CH1 and GR1
As to B1, the binding result is on record as “no binding”.
